According to paper PMC11323563, “Multiple levels of transcriptional regulation control glycolate metabolism in Paracoccus denitrificans” (mBio, 2024):

Columns and labels:
[1] = molecular target: T1, MGlcR (MBP-GlcR) (Paracoccus denitrificans DSM 413) (UniProt A1BAC0); test: fluorescence polarization
T1 sequence: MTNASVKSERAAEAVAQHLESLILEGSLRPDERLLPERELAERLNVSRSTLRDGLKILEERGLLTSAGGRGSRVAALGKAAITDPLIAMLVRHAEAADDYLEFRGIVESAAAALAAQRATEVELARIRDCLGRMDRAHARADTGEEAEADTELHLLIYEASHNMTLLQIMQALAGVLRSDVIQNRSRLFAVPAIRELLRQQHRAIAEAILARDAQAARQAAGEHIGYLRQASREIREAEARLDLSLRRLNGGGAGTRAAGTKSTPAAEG

[2] = molecular target: T2, BhcR (Paracoccus denitrificans, UniProt A1B8Z4); test: EMSA of Pbhc DNA-BhcR complex with effector; format: binding; settings: 0.1-5 mM effector, pH 7.0, 37 °C
T2 construct: full length, pET16b His tag (cutting not mentioned), E. coli BL21 AI; Ni-NTA and size exclusion
T2 sequence (A1B8Z4 whole entry): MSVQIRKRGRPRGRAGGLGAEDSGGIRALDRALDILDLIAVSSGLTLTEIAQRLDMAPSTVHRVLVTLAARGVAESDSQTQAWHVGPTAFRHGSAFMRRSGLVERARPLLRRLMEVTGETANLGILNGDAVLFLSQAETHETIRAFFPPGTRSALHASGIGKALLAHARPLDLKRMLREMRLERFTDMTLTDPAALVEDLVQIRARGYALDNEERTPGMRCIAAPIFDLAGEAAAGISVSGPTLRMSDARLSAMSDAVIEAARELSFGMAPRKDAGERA

[3] = molecular target: BhcR (Paracoccus denitrificans DSM 413) (UniProt A1B8Z4); test: EMSA; settings: EMSA: 20 mM K phosphate pH 7.0, 1 mM DTT, 5 mM MgCl2, 50 mM KCl, 15 ug/mL BSA, 50 ug/mL herring sperm DNA, 5% glycerol, 0.1% Tween20, DNA 0.025 pM, 37 C …
BhcR (Paracoccus denitrificans DSM 413), sequence (A1B8Z4 whole entry): as above

[4] = molecular target: T3, GlcR (Paracoccus denitrificans DSM 413) (UniProt A1BAC0); test: EMSA; settings: EMSA: 20 mM K phosphate pH 7.0, 1 mM DTT, 5 mM MgCl2, 50 mM KCl, 15 ug/mL BSA, 50 ug/mL herring sperm DNA, 5% glycerol, 0.1% Tween20, DNA 0.025 pM, 37 C …
T3 sequence: T1 sequence

[5] = molecular target: T4, GlcR (Paracoccus denitrificans, UniProt A1BAC0); test: EMSA of Pglc DNA-GlcR complex with effector; settings: 0.5-2 mM effector; pH 7.0, 37 °C; effector decreasing DNA binding
T4 construct: gene Pden_4400; full length, pET16b His tag (cutting not mentioned), E. coli BL21 AI; Ni-NTA and size exclusion
T4 sequence (A1BAC0 1-269): T1 sequence

[6] = molecular target: T5, MGlcR (Paracoccus denitrificans, UniProt A1BAC0); test: fluorescence polarization, effector titration of 6FAM-Pglc-MGlcR complex; settings: 0.1-100 mM effector, 750 nM MGlcR, 10 nM Pglc; pH 7.5, room temperature; effector decreasing DNA binding
T5 construct: gene Pden_4400; Ni-NTA purified
T5 sequence (A1BAC0 1-269): T1 sequence

[7] = effector increasing DNA binding
[8] = EMSA: 20 mM K phosphate pH 7.0, 1 mM DTT, 5 mM MgCl2, 50 mM KCl, 15 ug/mL BSA, 50 ug/mL herring sperm DNA, 5% glycerol, 0.1% Tween20, DNA 0.025 pM, 37 C …

Q: Which Kd ([1]; 10 nM DNA) does the source give for [6FAM]-Pglc here?
A: The Kd was 225 nM.

Q: For `O=CC(=O)O` [glyoxylate], which “EMSA of Pbhc DNA-BhcR complex with effector” value (shortened to “EMSA of Pbhc DNA-BhcR complex”) ([2]; effector decreasing DNA binding) is on record?
A: The value was “the interaction of BhcR with Pbhc was negatively affected by increasing concentrations of glyoxylate”.

Q: With “GGAATGAAGATCGGGTTCTGGCTGGTCATGGCAATTCCTCCTGCGCTTGTGGACCAAGCTACGTTTTGCTGTCCATTGATGCAATTTTTCTGAAAAATATTTCGCAATCGCGGAAAAATGACCTAAAGTGTCGTGGAATCAGATCGTTGCTCTTTTCCAAAGCCAAAGAGTGATTTTCAACAAACTCAGAAAGTTGTCGAAAGGAAAAATTGAATGTCGGTTCAAATCCGCAAAAGGG (double strand) [Pbhc 238 bp]” as the compound, how does the binding [3] read?
A: Its binding is “binds”.

Q: Which binding [4] does the source give for “CAAGCTCTCCTCCCTTGGTCGAACGGCAGGCCCGTGTCCTGCCCTGCATTCTTGGTATAATTTTCAGACCACATTAGTCAATCGGTATTTTTCTGGACCGACACGCCCGTCCTGTGCTTACATGGCAGGGATCCGACAACCGCATGAGCGCCCATG (double strand) [Pglc 156 bp]” here?
A: The binding was “binds”.

Q: Which “EMSA of Pbhc DNA-BhcR complex” value [2, 7] does the source give for `O=C(O)C(=O)O` [oxalate] here?
A: The value was “the DNA-binding interaction was positively affected by the presence of pyruvate or oxalate”.

Q: For `CC(=O)C(=O)O` [pyruvate], which “EMSA of Pbhc DNA-BhcR complex” value [2, 7] is on record?
A: The value was “the DNA-binding interaction was positively affected by the presence of pyruvate or oxalate”.

Q: Which results are given for `O=C(O)CO` [glycolate]?
A: EMSA of Pglc DNA-GlcR complex with effector [5]: DNA binding was decreased in the presence of glycolate; fluorescence polarization, effector titration of 6FAM-Pglc-MGlcR complex [6]: Titration of the Pglc-MGlcR complex with increasing concentrations of glycolate demonstrated a notable decrease in binding

Q: Which Kd [1, 8] does the source give for “GCTCTCCTCCCTTGGTCGAACGGCAGGCCCGTGTCCTGCCCTGCATTCTTGGTATAATTTTCAGACCACATTAGTCAATCGGTATTTTTCTGGACCGACACGCCCGTCCTGTGCTTACATGGCAGGGATCCGACAACCGCATGAGCGCCC (double strand) [[6FAM]-Pglc]” here?
A: Its Kd is 225 nM.

Q: And the binding [1, 8]?
A: The binding was “binds”.
